Here are results for one molecule from US20120148575A1 (published 2012).

The experiment deals with Control. Briefly: SPR. For orientation: Surface plasmon resonance follows binding to a sensor surface in real time, without labels.

B1: muFcgRIV (receptor)
chain: GLQKAVVNLDPKWVRVLEEDSVTLRCQGTFSPEDNSIKWFHNESLIPHQDANYVIQSARVKDSGMYRCQTALSTISDPVQLEVHMGWLLLQTTKWLFQEGDPIHLRCHSWQNRPVRKVTYLQNGKGKKYFHENSELLIPKATHNDSGSYFCRGLIGHNNKSSASFRISLGDPGSPSMFPPWHQ
As a reminder, the Kd is the concentration at which binding is half-saturated. Low readings indicate tighter binding, high ones weaker binding. Molecule B1 had a Kd of 329 nM.
